Measured values reported in patent US20260201389A1 (NATIONAL UNIVERSITY OF SINGAPORE, published 2026).
Changes are numbered by the printed parent chain.

B1: WWP2-C, endogenous in mouse WT primary cardiac fibroblasts (enzyme, UniProt Q9DBH0 440-870, looked up)
chain: MIQEPALPPGWEMKYTSEGVRYFVDHNTRTTTFKDPRPGFESGTKQGSPGAYDRSFRWKYHQFRFLCHSNALPSHVKISVSRQTLFEDSFQQIMNMKPYDLRRRLYIIMRGEEGLDYGGIAREWFFLLSHEVLNPMYCLFEYAGKNNYCLQINPASSINPDHLTYFRFIGRFIAMALYHGKFIDTGFTLPFYKRMLNKRPTLKDLESIDPEFYNSIVWIKENNLEECGLELFFIQDMEILGKVTTHELKEGGENIRVTEENKEEYIMLLTDWRFTRGVEEQTKAFLDGFNEVAPLEWLRYFDEKELELMLCGMQEIDMSDWQKNAIYRHYTKSSKQIQWFWQVVKEMDNEKRIRLLQFVTGTCRLPVGGFAELIGSNGPQKFCIDRVGKETWLPRSHTCFNRLDLPPYKSYEQLKEKLLYAIEETEGFGQE
B2: FLAG-tagged WWP2-C (enzyme)
chain: B1 chain with F232Y, N254S, N324S, A325T, S333N, R386K, K415R
notes: Expressed from a plasmid in NIH-3T3 mouse fibroblasts; The position of the FLAG tag is unknown; also called WWP2-Flag isoforms; C-terminal isoform; not shown: FLAG tag

Experiments:
SMAD2 protein [1] = target: T1, SMAD2 protein (mouse, UniProt Q62432 2-467); experiment: co-immunoprecipitation with anti-SMAD2 antibody from TGFβ1-stimulated mouse WT primary cardiac fibroblasts, western blot (FIG. 16D)
T1 construct: Endogenous protein in cell lysates

SMAD2 protein [2] = target: T1, SMAD2 protein; experiment: co-immunoprecipitation with anti-FLAG antibody from NIH-3T3 lysates, western blot (FIG. 16C)

T1 sequence (Q62432 2-467 limits assumed): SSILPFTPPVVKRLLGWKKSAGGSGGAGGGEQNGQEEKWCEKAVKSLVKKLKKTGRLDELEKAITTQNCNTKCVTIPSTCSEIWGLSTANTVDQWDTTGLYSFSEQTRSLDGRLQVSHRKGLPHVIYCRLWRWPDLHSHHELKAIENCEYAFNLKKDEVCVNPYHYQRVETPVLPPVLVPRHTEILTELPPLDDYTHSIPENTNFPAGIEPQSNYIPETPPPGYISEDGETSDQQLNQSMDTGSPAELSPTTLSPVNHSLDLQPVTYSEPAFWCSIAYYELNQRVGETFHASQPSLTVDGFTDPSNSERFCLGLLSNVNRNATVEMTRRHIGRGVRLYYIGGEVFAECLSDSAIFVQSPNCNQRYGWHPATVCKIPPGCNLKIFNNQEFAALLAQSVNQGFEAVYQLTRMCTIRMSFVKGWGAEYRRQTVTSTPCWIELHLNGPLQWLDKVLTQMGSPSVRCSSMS

| Binder | binding result (SMAD2 protein [1]) | binding result (SMAD2 protein [2]) |
| --- | --- | --- |
| B1 | no binding |  |
| B2 |  | no binding |
